Data set [1] relates to MS2 coat protein. Put plainly: apparent KD of MS2 coat protein; higher = weaker reporter binding. The note with it: Eterna round: R101. The method, then:
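RNA-MaP: designed FMN/MS2 RNA switches (84 nt design region) are transcribed on-chip within common flanks and titrated with SNAP-549-labelled MS2 coat protein (about 1-3000 nM) in 100 mM Tris pH 7.5, 80 mM KCl, 4 mM MgCl2, without or with 200 uM FMN. Median apparent KD per design; activation ratio = KD,OFF / KD,ON.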

The subject of data set [2] is MS2 coat protein. Put plainly: apparent KD of MS2 coat protein, switch ON state; designed switch direction (-1 OFF switch, 1 ON switch): 1; higher = weaker reporter binding. Particulars: FMN input: 0 or 200 uM; Eterna round: R93 (includes R88 designs). Summed up: (§1)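 Apparent KD stands for the median, per design, of fits to normalised cluster binding curves. The curves came from titrating on-chip-transcribed RNA switches on Illumina sequencing clusters with SNAP-549-labelled MS2 coat protein, twofold from 0.7 or 1.5 nM to 3 µM. Buffer was 100 mM Tris-HCl pH 7.5, 80 mM KCl, 4 mM MgCl2, without or with constant ligand.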

Data set [3] deals with MS2 coat protein. Put plainly: apparent KD of MS2 coat protein, switch OFF state (with FMN for OFF switches, without FMN for ON switches); designed switch direction (-1 OFF switch, 1 ON switch): 1; higher = weaker reporter binding. Particulars: FMN input: 0 or 200 uM; Eterna round: R93 (includes R88 designs). The method in brief:
as §1

As for “CACCUAAAUCCUAGAGGAUCACCCUAGGAUAUCACCGUCGAGGUGCCAUAAUGGCACCUCGACGGUGAGAAGGAGGAAAAAUAA [#SharedSequence - SLExNG3: 10] (puzzle (switch architecture): Small Loop Exclusion NG 3)”, the “apparent KD of MS2 coat protein” value in the data set on MS2 coat protein [1] (input ligand: FMN 200 uM) was 5.85 nM; in the data set on MS2 coat protein [1] (input ligand: none), 4.95 nM.

Take “AAUAAUCUUUAAGGAUAUGACUCCGAAACGGAGUCAGAAGGUGAGGAUCACCCACCUAGCUCAGGGUCGAAAGACCCUGAGCAA [#SharedSequence - ExNG1-9] (puzzle (switch architecture): Exclusion NG 1)”: the entries for the “apparent KD of MS2 coat protein” value with MS2 coat protein [1] (input ligand: FMN 200 uM) and in the data set on MS2 coat protein [1] (input ligand: none) were 10.6 nM and 9.5 nM, respectively.

On to “GAAAUAUAGUCAGGAUAUCAGGACAUGAGGAUCACCCAUGUACUGAAUGGGCUGGUGAAAAGAGAUGAGAAGGGACACACUAGA [EternaBot874] (puzzle (switch architecture): Exclusion NG 2)”, for which, in the data set on MS2 coat protein [1] (input ligand: FMN 200 uM), the “apparent KD of MS2 coat protein” value stood at 5.79 nM.

For “AAGUACAAGCAGAAGGCACAUGAGGAUCACCCAUGUCGGGCGUCCUGUAAGUGAGGAUAUGCUAAGUGACGGCCGCCUUGGCGG [Adienare] (puzzle (switch architecture): Inverted Small Loop Exclusion NG 1)”, the figures for the “apparent KD of MS2 coat protein” value with MS2 coat protein [1] (input ligand: FMN 200 uM) and in the data set on MS2 coat protein [1] (input ligand: none) were 22.6 nM and 383 nM, respectively.

As to “CUUACUUUGUAGAAGGGUGACAUGAGGAUCACCCAUGUGCGUCGCCUGGAAGACCAGGGUACGCCACAGGAUAUACAAAGUAAG [Gesoesla] (puzzle (switch architecture): Inverted Same State NG 2)”, the entries for the “apparent KD of MS2 coat protein” value with MS2 coat protein [1] (input ligand: FMN 200 uM) and with MS2 coat protein [1] (input ligand: none) were 113 nM and 119 nM, respectively.

Regarding “AAAUGAUAUCAGAAGGCGUGGACGAAACGUCCACGAGGAUAUGAGGAUCACCCAUAUCAGGUCAGCCUGCAAAGCAGGCUGACC [#SharedSequence - IExNG1: 7-2] (puzzle (switch architecture): Inverted Exclusion NG 1)”, the entries for the “apparent KD of MS2 coat protein” value with MS2 coat protein [1] (input ligand: FMN 200 uM) and with MS2 coat protein [1] (input ligand: none) were 126 nM and 15.6 nM, respectively.

Regarding “AAAGAUUUUUAAGGAUAUGACUCCGAAACGGAGUCAGAAGGUGAGGAUCACCCAUCUAGCUCAGGGUCGAAAGACCCUGAGCAA [#SharedSequence - ExNG1-15] (puzzle (switch architecture): Exclusion NG 1)”, the “apparent KD of MS2 coat protein” value in the data set with MS2 coat protein [1] (input ligand: FMN 200 uM) was found to be 78.3 nM; in the data set on MS2 coat protein [1] (input ligand: none) it was 43.6 nM.

For the sequence “UAUUAUAUGGAGAAGGACAUGAGGAUCACCCAUGUCGCCGGGCCCGGGAAACCGGGCCCGGCCAUGUAGGAUAUCCAUAUGGUA [#This is a good prank 6] (puzzle (switch architecture): Inverted Exclusion NG 2)”, the “apparent KD of MS2 coat protein” value in the data set with MS2 coat protein [1] (input ligand: FMN 200 uM) came to 5.41 nM; with MS2 coat protein [1] (input ligand: none) it was 4.78 nM.

As to “UAAUCUCGAGCCGACGGGAGAUUACAUGAGGAUCACCCAUGUGAGGAUAUCCCUGAGAAGACGGCGGAGAAGGCACUGGGUAGG [Diraoran] (puzzle (switch architecture): Exclusion NG 3)”, the “apparent KD of MS2 coat protein” value in the data set on MS2 coat protein [1] (input ligand: FMN 200 uM) amounted to 18.3 nM; with MS2 coat protein [1] (input ligand: none), 9.79 nM.

Consider “GCAGCUAAUGCAGGAUAUCAGCACGUGUAGUGCUGAGAAGGGCACAUGAGGAUUCUGACUGUGAUCAAUUAAUAUUAAUGCUGC [salish99#hingeEx3_55-58_005] (puzzle (switch architecture): Exclusion NG 1)”, for which the “apparent KD of MS2 coat protein” value is 14.8 nM in the data set with MS2 coat protein [1] (input ligand: FMN 200 uM) and 29.2 nM in the data set on MS2 coat protein [1] (input ligand: none).

With “CACCUAAAUCCUAGAGGAUCACCCUAGGAUAUCACCGUCGAGGUGCCAUAAUGGCACCUCGACGGUGAGAAGGAGGGUGAAAUA [#SharedSequence - SLExNG3: 8] (puzzle (switch architecture): Small Loop Exclusion NG 3)”, the “apparent KD of MS2 coat protein” value in the data set with MS2 coat protein [1] (input ligand: FMN 200 uM) was found to be 6.49 nM; in the data set on MS2 coat protein [1] (input ligand: none), 5.08 nM.

For “GGAGAAACAUGAGGAUCACCCAUGUAGGAUAUCGGGCCCGGGCCCGGCGAAAGCCGGGCCCGGGACGAGAAGGGCGUAAACACC [#LOL] (puzzle (switch architecture): Small Loop Exclusion NG 3)”, the figures for the “apparent KD of MS2 coat protein” value in the data set with MS2 coat protein [1] (input ligand: FMN 200 uM) and in the data set on MS2 coat protein [1] (input ligand: none) were 8.72 nM and 8.74 nM, respectively.

For “GUUGGAUUUCAGAAGGGCUCCAGCAAAGCUGGAGCAGGAUAUGAGGAUCACCCAUAUCAAUCUCCAGAAUUGAUAUGAAUCAAU [#SharedSequence - IExNG1: 9-1] (puzzle (switch architecture): Inverted Exclusion NG 1)”, the “apparent KD of MS2 coat protein” value in the data set with MS2 coat protein [1] (input ligand: FMN 200 uM) is 317 nM; with MS2 coat protein [1] (input ligand: none) it was 29.2 nM.

“AAAUAAUCCUCAGGAUAUGACUCCGAAACGGAGUCAGAAGGGAGGAUCACCCUCUUCAGCUCAGCGUCGAAAGACGCUGAGCAA [#SharedSequence ExNG1 - 23] (puzzle (switch architecture): Exclusion NG 1)”: the “apparent KD of MS2 coat protein” value was 11.9 nM in the data set on MS2 coat protein [1] (input ligand: FMN 200 uM) and 863 nM with MS2 coat protein [1] (input ligand: none).

“GCCUAACAUGAGGAUCACCCAUGUAGUGGGUUGUUAGGAUAUGGGCCGUGUAACACUGCACCAGAAGGAAUAGAAG [Atinanqu]”: the results for the “apparent KD of MS2 coat protein” value with MS2 coat protein [2] and in the data set with MS2 coat protein [3] were 382 nM and 532 nM, respectively.

In the case of “AACUAACAUGAGGAUCACCCAUGUAUUCAAACAUGAGGAUAUAUAACACAUCAUCGACAGAUAGAAGGCAUAAAUA [JR_SS001_Sub1205]”, the “apparent KD of MS2 coat protein” value was determined as 89.6 nM in the data set on MS2 coat protein [2] and 78.5 nM with MS2 coat protein [3].

As for “AAUAAACAUGAGGAUCACCCAUGUAAAUGGGCGAUAGGAUAUGCGAAAAUAAAGAAAGAAGCAGAAGGAUCGAAGA [Ex5 sub 3]”, the “apparent KD of MS2 coat protein” value with MS2 coat protein [2] is 224 nM; in the data set on MS2 coat protein [3], 51.9 nM.

Regarding “AGAAUAAAAAGAGAGGAUAUCCAUAAGAAAACAUGAGGAUCACCCAUGUGAAAGAUAAUAAAAUGGGAGAAGGCUCAAAAUAAGA [Topaz 45]”, the results for the “apparent KD of MS2 coat protein” value in the data set on MS2 coat protein [2] and with MS2 coat protein [3] were 21 nM and 20.2 nM, respectively.

Turning to “AAAAAAAAAGUAGAGGAUAUCCGAGUGGUAACAUGAGGAUCACCCAUGUGAAGAAAGGAACAUGAGGAGAAGGCUACAAAAAAAAA [Normal (18/17)]”, the “apparent KD of MS2 coat protein” value was determined as 11.9 nM in the data set with MS2 coat protein [2] and 30.4 nM in the data set on MS2 coat protein [3].

For “AGAAAUAAAUGAGAGGAUAUCCAAAAGAAAACAUGAGGAUCACCCAUGUAAAAGAAAAUAAAAUGGGAGAAGGCUCGAAAUAAAG [80%, More Helter Skelter 2]”, the “apparent KD of MS2 coat protein” value came to 22.4 nM in the data set on MS2 coat protein [2] and 68.5 nM with MS2 coat protein [3].

Regarding “AAGUCACAUGAGGAUCACCCAUGUCGUAAACGAUGAGGAUAUAGGAACGAAAGAAAAAAACUAGAAGGUAUAACAA [SameState1-03]”, the “apparent KD of MS2 coat protein” value in the data set on MS2 coat protein [2] was 28.8 nM; with MS2 coat protein [3], 26.7 nM.

As for “AAAAAACAUGAGGAUCACCCAUGUAUAAAAUGGGAAGGAUAUACUAAGACGAAAGUCAUAGUAGAAGGUCCAAAAA [76%, Meechl, 12]”, the “apparent KD of MS2 coat protein” value in the data set with MS2 coat protein [2] was 44.5 nM; in the data set with MS2 coat protein [3] it was 193 nM.

Take “UAAAAACAUGAGGAUCACCCAUGUGAGAACAUGGGAGGAUAUACAAGGACGAAAGUCAAGGUAGAAGGCCUAAAAU [Mat - Same State 1 - Mod - D175]”: the “apparent KD of MS2 coat protein” value in the data set on MS2 coat protein [2] came to 160 nM; with MS2 coat protein [3], 29.3 nM.

Regarding “AAACCACAUGAGGAUCACCCAUGUAGAAAUAUGGGAGGAUAUACAAACACGAAAGUGAAAGUAGAAGGCCUAAAAG [77%, Mat - Mod of Eli, 7]”, the “apparent KD of MS2 coat protein” value with MS2 coat protein [2] was 17.7 nM; in the data set with MS2 coat protein [3], 118 nM.

As to “AAGAGAAGAACUGAGGAUAUCAGGGAUGGUACAUGAGGAUCACCCAUGUUGGCAAGCGAAGAAACUGAGAAGGCAGAGAAGAAGAA [JR_SameState2_Sub6]”, the “apparent KD of MS2 coat protein” value in the data set on MS2 coat protein [2] was found to be 29.4 nM; in the data set with MS2 coat protein [3], 34.3 nM.
